The values below come from patent US20260001928A1 (CORTERIA PHARMACEUTICALS, priority 2022, published 2026).

One experiment deals with T1, CRF1R receptor (UniProt P34998 24-415, limits assumed).
T1 sequence (looked up): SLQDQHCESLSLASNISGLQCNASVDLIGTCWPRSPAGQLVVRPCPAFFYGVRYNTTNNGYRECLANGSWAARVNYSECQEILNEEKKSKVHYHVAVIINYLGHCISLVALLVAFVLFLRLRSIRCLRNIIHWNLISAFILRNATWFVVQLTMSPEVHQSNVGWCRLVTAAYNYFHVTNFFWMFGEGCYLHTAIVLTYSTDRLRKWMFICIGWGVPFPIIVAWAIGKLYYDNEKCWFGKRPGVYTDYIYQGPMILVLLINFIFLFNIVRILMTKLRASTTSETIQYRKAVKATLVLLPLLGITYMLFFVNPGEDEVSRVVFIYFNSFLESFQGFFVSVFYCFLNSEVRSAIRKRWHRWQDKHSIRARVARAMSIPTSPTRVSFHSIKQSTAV
The experiment in a line: cell-based or functional assay.

Experiment [1] concerns the target human corticotropin-releasing factor 2a (CRF2a receptor) (human), Q13324. The experiment in a line: cell-based or functional assay.

*1 amine or outer side, *2 acyl side, *3 side chain or, on linkers, in order; H or OH if unused. Where no end group is shown, it is not given here. Side-chain parts run from the residue outwards. [ ]: non-standard residue; d: D form. The star is where a group is joined. C18 diacid = O=C(O)CCCCCCCCCCCCCCCCC(=O)*; C16 diacid = O=C(O)CCCCCCCCCCCCCCC(=O)*; γGlu = O=C(O)[C@H](CCC(=O)[*:2])N[*:1]; NMeI = CC[C@H](C)[C@H](NC)C(=O)O; αMeL = CC(C)C[C@](C)(N)C(=O)O; Api = NC1(C(=O)O)CCNCC1; AEEA = NCCOCCOCC(=O)O; Aib = CC(C)(N)C(=O)O

human corticotropin-releasing factor 2a (CRF2a receptor) (human), Q13324, sequence (Q13324 20-411): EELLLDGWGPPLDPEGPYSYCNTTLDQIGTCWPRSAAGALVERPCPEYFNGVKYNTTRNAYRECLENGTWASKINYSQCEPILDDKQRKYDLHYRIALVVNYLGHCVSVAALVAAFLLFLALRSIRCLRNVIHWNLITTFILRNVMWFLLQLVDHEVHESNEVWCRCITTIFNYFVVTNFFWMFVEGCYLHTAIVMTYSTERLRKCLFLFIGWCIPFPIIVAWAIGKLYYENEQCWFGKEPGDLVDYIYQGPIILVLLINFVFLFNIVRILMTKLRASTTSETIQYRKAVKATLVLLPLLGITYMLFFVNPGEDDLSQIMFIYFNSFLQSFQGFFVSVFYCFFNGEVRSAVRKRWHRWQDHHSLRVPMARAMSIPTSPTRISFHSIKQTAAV

B1: SEQ ID NO 109 (peptide)
peptide: Ac-IVLSLD[dV]PIKLK([AEEA-AEEA-γGlu-C18 diacid])KILLEQEKQKKQREQAETN[Api]QILAQV-NH2
SMILES: CC[C@H](C)[C@H](NC(C)=O)C(=O)N[C@H](C(=O)N[C@@H](CC(C)C)C(=O)N[C@@H](CO)C(=O)N[C@@H](CC(C)C)C(=O)N[C@@H](CC(=O)O)C(=O)N[C@@H](C(=O)N1CCC[C@H]1C(=O)N[C@H](C(=O)N[C@@H](CCCCN)C(=O)N[C@@H](CC(C)C)C(=O)N[C@@H](CCCCNC(=O)COCCOCCNC(=O)COCCOCCNC(=O)CC[C@H](NC(=O)CCCCCCCCCCCCCCCCC(=O)O)C(=O)O)C(=O)N[C@@H](CCCCN)C(=O)N[C@H](C(=O)N[C@@H](CC(C)C)C(=O)N[C@@H](CC(C)C)C(=O)N[C@@H](CCC(=O)O)C(=O)N[C@@H](CCC(N)=O)C(=O)N[C@@H](CCC(=O)O)C(=O)N[C@@H](CCCCN)C(=O)N[C@@H](CCC(N)=O)C(=O)N[C@@H](CCCCN)C(=O)N[C@@H](CCCCN)C(=O)N[C@@H](CCC(N)=O)C(=O)N[C@@H](CCCNC(=N)N)C(=O)N[C@@H](CCC(=O)O)C(=O)N[C@@H](CCC(N)=O)C(=O)N[C@@H](C)C(=O)N[C@@H](CCC(=O)O)C(=O)N[C@H](C(=O)N[C@@H](CC(N)=O)C(=O)NC1(C(=O)N[C@@H](CCC(N)=O)C(=O)N[C@H](C(=O)N[C@@H](CC(C)C)C(=O)N[C@@H](C)C(=O)N[C@@H](CCC(N)=O)C(=O)N[C@H](C(N)=O)C(C)C)[C@@H](C)CC)CCNCC1)[C@@H](C)O)[C@@H](C)CC)[C@@H](C)CC)C(C)C)C(C)C
With B1, the “Emax (% I)” value with CRF1R receptor is 4%. The same molecule showed an EC50 [nM] (cAMP) in experiment [1] of 1 nM.

B2: SEQ ID NO 101 (peptide)
peptide: Ac-VLSLD[dV]PIKLK([AEEA-AEEA-γGlu-C18 diacid])KILLEQEKQKKQREQAETNAQILAQV-NH2
SMILES: CC[C@H](C)[C@H](NC(=O)[C@H](CCC(N)=O)NC(=O)[C@H](C)NC(=O)[C@H](CC(N)=O)NC(=O)[C@@H](NC(=O)[C@H](CCC(=O)O)NC(=O)[C@H](C)NC(=O)[C@H](CCC(N)=O)NC(=O)[C@H](CCC(=O)O)NC(=O)[C@H](CCCNC(=N)N)NC(=O)[C@H](CCC(N)=O)NC(=O)[C@H](CCCCN)NC(=O)[C@H](CCCCN)NC(=O)[C@H](CCC(N)=O)NC(=O)[C@H](CCCCN)NC(=O)[C@H](CCC(=O)O)NC(=O)[C@H](CCC(N)=O)NC(=O)[C@H](CCC(=O)O)NC(=O)[C@H](CC(C)C)NC(=O)[C@H](CC(C)C)NC(=O)[C@@H](NC(=O)[C@H](CCCCN)NC(=O)[C@H](CCCCNC(=O)COCCOCCNC(=O)COCCOCCNC(=O)CC[C@H](NC(=O)CCCCCCCCCCCCCCCCC(=O)O)C(=O)O)NC(=O)[C@H](CC(C)C)NC(=O)[C@H](CCCCN)NC(=O)[C@@H](NC(=O)[C@@H]1CCCN1C(=O)[C@H](NC(=O)[C@H](CC(=O)O)NC(=O)[C@H](CC(C)C)NC(=O)[C@H](CO)NC(=O)[C@H](CC(C)C)NC(=O)[C@@H](NC(C)=O)C(C)C)C(C)C)[C@@H](C)CC)[C@@H](C)CC)[C@@H](C)O)C(=O)N[C@@H](CC(C)C)C(=O)N[C@@H](C)C(=O)N[C@@H](CCC(N)=O)C(=O)N[C@H](C(N)=O)C(C)C
For the molecule B2, the “Emax (% I)” value with CRF1R receptor turned out to be 0%. Also, in experiment [1], the EC50 [nM] (cAMP) turned out to be 1.74 nM.

B3: SEQ ID NO 68 (peptide)
peptide: [NMeI]VLSLD[dV]PIKLK([γGlu-C16 diacid])KILLEQEKQKKQREQAETNAQILAQV-NH2
modifications: N-terminus assumed
SMILES: CC[C@H](C)[C@H](NC)C(=O)N[C@H](C(=O)N[C@@H](CC(C)C)C(=O)N[C@@H](CO)C(=O)N[C@@H](CC(C)C)C(=O)N[C@@H](CC(=O)O)C(=O)N[C@@H](C(=O)N1CCC[C@H]1C(=O)N[C@H](C(=O)N[C@@H](CCCCN)C(=O)N[C@@H](CC(C)C)C(=O)N[C@@H](CCCCNC(=O)CC[C@H](NC(=O)CCCCCCCCCCCCCCC(=O)O)C(=O)O)C(=O)N[C@@H](CCCCN)C(=O)N[C@H](C(=O)N[C@@H](CC(C)C)C(=O)N[C@@H](CC(C)C)C(=O)N[C@@H](CCC(=O)O)C(=O)N[C@@H](CCC(N)=O)C(=O)N[C@@H](CCC(=O)O)C(=O)N[C@@H](CCCCN)C(=O)N[C@@H](CCC(N)=O)C(=O)N[C@@H](CCCCN)C(=O)N[C@@H](CCCCN)C(=O)N[C@@H](CCC(N)=O)C(=O)N[C@@H](CCCNC(=N)N)C(=O)N[C@@H](CCC(=O)O)C(=O)N[C@@H](CCC(N)=O)C(=O)N[C@@H](C)C(=O)N[C@@H](CCC(=O)O)C(=O)N[C@H](C(=O)N[C@@H](CC(N)=O)C(=O)N[C@@H](C)C(=O)N[C@@H](CCC(N)=O)C(=O)N[C@H](C(=O)N[C@@H](CC(C)C)C(=O)N[C@@H](C)C(=O)N[C@@H](CCC(N)=O)C(=O)N[C@H](C(N)=O)C(C)C)[C@@H](C)CC)[C@@H](C)O)[C@@H](C)CC)[C@@H](C)CC)C(C)C)C(C)C
B3: the “Emax (% I)” value with CRF1R receptor amounted to 8%. The EC50 [nM] (cAMP) in experiment [1] amounted to 0.05 nM.

B4: SEQ ID NO 112 (peptide)
peptide: Ac-IVLSLD[dV]PIK[αMeL]K([AEEA-AEEA-γGlu-C18 diacid])KILLEQEKQKKQREQAETNAQILAQV-NH2
SMILES: CC[C@H](C)[C@H](NC(C)=O)C(=O)N[C@H](C(=O)N[C@@H](CC(C)C)C(=O)N[C@@H](CO)C(=O)N[C@@H](CC(C)C)C(=O)N[C@@H](CC(=O)O)C(=O)N[C@@H](C(=O)N1CCC[C@H]1C(=O)N[C@H](C(=O)N[C@@H](CCCCN)C(=O)N[C@@](C)(CC(C)C)C(=O)N[C@@H](CCCCNC(=O)COCCOCCNC(=O)COCCOCCNC(=O)CC[C@H](NC(=O)CCCCCCCCCCCCCCCCC(=O)O)C(=O)O)C(=O)N[C@@H](CCCCN)C(=O)N[C@H](C(=O)N[C@@H](CC(C)C)C(=O)N[C@@H](CC(C)C)C(=O)N[C@@H](CCC(=O)O)C(=O)N[C@@H](CCC(N)=O)C(=O)N[C@@H](CCC(=O)O)C(=O)N[C@@H](CCCCN)C(=O)N[C@@H](CCC(N)=O)C(=O)N[C@@H](CCCCN)C(=O)N[C@@H](CCCCN)C(=O)N[C@@H](CCC(N)=O)C(=O)N[C@@H](CCCNC(=N)N)C(=O)N[C@@H](CCC(=O)O)C(=O)N[C@@H](CCC(N)=O)C(=O)N[C@@H](C)C(=O)N[C@@H](CCC(=O)O)C(=O)N[C@H](C(=O)N[C@@H](CC(N)=O)C(=O)N[C@@H](C)C(=O)N[C@@H](CCC(N)=O)C(=O)N[C@H](C(=O)N[C@@H](CC(C)C)C(=O)N[C@@H](C)C(=O)N[C@@H](CCC(N)=O)C(=O)N[C@H](C(N)=O)C(C)C)[C@@H](C)CC)[C@@H](C)O)[C@@H](C)CC)[C@@H](C)CC)C(C)C)C(C)C
Turning to B4, the “Emax (% I)” value in the experiment with CRF1R receptor worked out at 3%. This molecule had an EC50 [nM] (cAMP) in experiment [1] of 0.28 nM.

B5: SEQ ID NO 98 (peptide)
peptide: Ac-IVLSLD[dV]PIKLK([AEEA-AEEA-γGlu-C18 diacid])KILLEQEKQKKQREQAETN[Aib]QILAQV-NH2
SMILES: CC[C@H](C)[C@H](NC(C)=O)C(=O)N[C@H](C(=O)N[C@@H](CC(C)C)C(=O)N[C@@H](CO)C(=O)N[C@@H](CC(C)C)C(=O)N[C@@H](CC(=O)O)C(=O)N[C@@H](C(=O)N1CCC[C@H]1C(=O)N[C@H](C(=O)N[C@@H](CCCCN)C(=O)N[C@@H](CC(C)C)C(=O)N[C@@H](CCCCNC(=O)COCCOCCNC(=O)COCCOCCNC(=O)CC[C@H](NC(=O)CCCCCCCCCCCCCCCCC(=O)O)C(=O)O)C(=O)N[C@@H](CCCCN)C(=O)N[C@H](C(=O)N[C@@H](CC(C)C)C(=O)N[C@@H](CC(C)C)C(=O)N[C@@H](CCC(=O)O)C(=O)N[C@@H](CCC(N)=O)C(=O)N[C@@H](CCC(=O)O)C(=O)N[C@@H](CCCCN)C(=O)N[C@@H](CCC(N)=O)C(=O)N[C@@H](CCCCN)C(=O)N[C@@H](CCCCN)C(=O)N[C@@H](CCC(N)=O)C(=O)N[C@@H](CCCNC(=N)N)C(=O)N[C@@H](CCC(=O)O)C(=O)N[C@@H](CCC(N)=O)C(=O)N[C@@H](C)C(=O)N[C@@H](CCC(=O)O)C(=O)N[C@H](C(=O)N[C@@H](CC(N)=O)C(=O)NC(C)(C)C(=O)N[C@@H](CCC(N)=O)C(=O)N[C@H](C(=O)N[C@@H](CC(C)C)C(=O)N[C@@H](C)C(=O)N[C@@H](CCC(N)=O)C(=O)N[C@H](C(N)=O)C(C)C)[C@@H](C)CC)[C@@H](C)O)[C@@H](C)CC)[C@@H](C)CC)C(C)C)C(C)C
On to B5, for which the “Emax (% I)” value with CRF1R receptor is -2%. Further, in experiment [1], the EC50 [nM] (cAMP) was 0.55 nM.
